In the supplement of paper PMC9170038:

Tested on: MS2 coat protein
Assay: apparent KD of MS2 coat protein; designed switch direction (-1 OFF switch, 1 ON switch): -1; higher = weaker reporter binding
How it was run: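 Designed RNA switches were transcribed on Illumina chips by stalled E. coli RNA polymerase and titrated with SNAP-549-labelled MS2 coat protein from 0.7 or 1.5 nM, doubling to 3 µM. Step length ran from 0.8–1.5 h at the lowest concentration to 10–20 min at the highest. The apparent KD is the median over clusters for each design, from curve-fitted normalised cluster fluorescence.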

[1] = input ligand: microRNA oligo, concentration not stated
[2] = Eterna round: R95, input ligand: microRNA oligo, concentration not stated
[3] = Eterna round: R95, input ligand: FMN 200 uM
[4] = Eterna round: R95, input ligand: none

Sequence | apparent KD of MS2 coat protein (input ligand: FMN 200 uM) | apparent KD of MS2 coat protein [1] | apparent KD of MS2 coat protein (input ligand: none) | apparent KD of MS2 coat protein [2] | apparent KD of MS2 coat protein [3] | apparent KD of MS2 coat protein [4]
GCACGGAGUGUAGGAUAUUAGUGCGAUUAGCACUGAGAAGGACAUGAGGAUCACCCAUGUUCCUCGAUAAAAUACCUUCCGUGC [Eli exng1 - 041] (Eterna round: R96, puzzle: Exclusion NG 1) | 13.2 nM | 7.59 nM | 11.8 nM | – | – | –
GUAAUUAAUGUAGGAUAUGCAAGGCGAACCUAAGCAGAAGGACAUGUGGAUCACCCAUGUAAUGCGGUCUGCGUACAGAUCGCU [salish99_ex1_NG1_002] (Eterna round: R96, puzzle: Exclusion NG 1) | 507 nM | 103 nM | 60.2 nM | – | – | –
CUUUUGUGAGGAUAUCAGUAGUAAAUUAAUAAAAUUACUACUGAGAAGGCACAUGAGGAUCACCCAUGUUCCUU [Mat - Exclusion 4 - Mod of Salish - D64] (puzzle: Exclusion 4) | – | – | – | 14.9 nM | – | –
CCGGCUUAGCAGGAUAUAGGAGUCGAUAGACACCUAGAAGGGCUAACAUGAGGAUCACCCAUGUGUCCUACCGG [Mod of Eli 2 - Jieux - Exclusion 6] (Eterna round: R97, puzzle: Exclusion 6) | 102 nM | – | 47.6 nM | – | – | –
UCGCUCCGUGUAGGAUAUCGCCGUACUAUUCGGCGAGAAGGACAUGAGGAUCACCCAUGUAUGUUAUUAUCACGCGUGGCGCAA [Design 59] (Eterna round: R96, puzzle: Exclusion NG 1) | 20.3 nM | 15.2 nM | 16.9 nM | – | – | –
UCAUAACAUGAGGAUCACCCAUGUGAGGAUAUGAUACUAUGUACUUCGGUACAUAGUAUCAGAAGGCACAUACU [Ex1-3: 11] (puzzle: Exclusion 1) | – | – | – | 88.9 nM | – | –
GCGGAUUAUGUAGGAUAUCGGUCAGUUUCUGAUCGAGAAGGACAUGAGGAUCACCCAUGUAAAUUGCUCGCUUUGUGAGCCCGC [JL ENG1 3.63] (Eterna round: R96, puzzle: Exclusion NG 1) | 34.5 nM | 12.4 nM | 14.8 nM | – | – | –
CUUUCGUGAGGAUAUGUGGCUUCGAAAAUGAGAUCGAGGCUACAGAAGGCACAUGAGGAUCACCCAUGUUCCUC [salish99_ex4_r4_215] (Eterna round: R97, puzzle: Exclusion 4) | 400 nM | – | 35.6 nM | – | – | –
UACAUGAGGAUCACCCAUGUUUUGUCGUGUAUGGUAUUUAUCUAGGAUAUCAUUAUAUUUAGUUAUGAGAAGGAGAAUAUUAAU [JMF's solution 82] (Eterna round: R96, puzzle: Exclusion NG 3) | 28.1 nM | 23.6 nM | 44.6 nM | – | – | –
GAGGAACAUGAGGAUCACCCAUGUGAGGAUAUGCAUAGUGAGCUAGUAGACGUUUAUUGCAGAAGGUACACUGA [JR_Exclu1_Sub080] (puzzle: Exclusion 1) | – | – | – | 25.3 nM | – | –
UUUGUUUAUGUAGGAUAUGCCUGGCGUGCCUUCGCAGAAGGACAUGAGGAUCACCCAUGUAUUGCGGUCUGCGUUCAGAUCGCC [salish99_ExNG1_r4_028] (Eterna round: R96, puzzle: Exclusion NG 1) | 22.6 nM | 16.1 nM | 21 nM | – | – | –
UUUUAACAUGAGGAUCACCCAUGUGAGGAUAUCGAAAUUUAUAUUUAUAUUAAUAAAACGAGAAGGCACAUUUU [JMF 75] (puzzle: Exclusion 1) | – | – | – | 70.4 nM | 119 nM | 87.4 nM
GGUUGGCGAGGAUAUACAUGAGGAUCACCCAUGUGAGGGAAAAAAGUGAGAACGAAAAGUAGAAGGCGCUGACG [salish99_ex3_r3_063] (puzzle: Exclusion 3) | – | – | – | 54 nM | 10.5 nM | 80.5 nM
AGCGUGGAGACAGGAUAUGAGAAUAGAUAGAACUCAGAAGGGUCACAUGAGGAUCACCCAUGUAAAGUCUUGAGGAUGAGUGGU [Prohibition 5 - Jieux - Exclusion NG 1] (Eterna round: R96, puzzle: Exclusion NG 1) | 119 nM | 29 nM | 51.1 nM | – | – | –
AAGAAACAUGAGGAUCACCCAUGUGAGGAUAUGUAAAAUAAAAUAAAAGAAAUAAUAAACAGAAGGCACAAAGG [Mat - Mod of Hog D16] (puzzle: Exclusion 1) | – | – | – | 29.8 nM | 47.2 nM | 41.8 nM
CAGGAUAGAGGAUAUACGUAGAUACAGAUUCAUGUAAUCCUACAUGAGGAUCACCCAUGUAGAAGGCUAUCCUG [Fiskers Ex 2 - 18] (puzzle: Exclusion 2) | – | – | – | 17.6 nM | – | –
CAGUACUGAGGAUAUACAUGAGGAUCACCCAUGUGUUCCGGCUAGGAAACUAGCAAAAGUAGAAGGCAGUACUG [salish99_ex3_r3_079] (puzzle: Exclusion 3) | – | – | – | 30.8 nM | 368 nM | 28.5 nM
GAUGAGGUAGGAUAUACGAUAAUAUAGGGUAGAUAUAUAACACAUGAGGAUCACCCAUGUAGAAGGACCAGGAG [Mat - Exclusion 2 - Mod of my Tesla design - D65] (puzzle: Exclusion 2) | – | – | – | 28.1 nM | 77.3 nM | 36.1 nM
UAUAUAUAGUAAGGAUAUGUAUUAAUUAUAUAAACAGAAGGUACUGACAUGAGGAUCACCCAUGUUUUAGUGUGGGCAUGUAGA [JMF's solution 80] (Eterna round: R96, puzzle: Exclusion NG 1) | – | 65.8 nM | – | – | – | –
GAACCUUGAGGAUAUACAUAACAACAAAGCCUCACGUGCCAACAUGAGGAUCACCCAUGUAGAAGGCAAGCCAA [Mod R3 Insanara 9 - Jieux - Exclusion 2] (Eterna round: R97, puzzle: Exclusion 2) | 19 nM | – | 16.2 nM | – | – | –
GAAAAGGUAGGAUAUACGAAAAAAAAGGGCAGAAAAAAAACACAUGAGGAUCACCCAUGUAGAAGGACCAAAAG [salish99_ex2_r3_065] (puzzle: Exclusion 2) | – | – | – | 24.3 nM | 26.6 nM | 23.2 nM
ACUUAUAGAGGAUAUACAGUUAAUUACAUGAGGAUCACCCAUGUUCUUCAAUGUAUAUAAGUAGAAGGCUAAGGAA [Ex5 Malc#5 mod] (Eterna round: R97, puzzle: Exclusion 5) | 64.3 nM | – | 16.7 nM | – | – | –
AAUUAGCAAGCGAGAUCCCACAUGAGGAUCACCCAUGUGCUCGUCUUAUAUAAGGUACUGUACGAGAGUACGGUACC [Mat - Sensor, turn-off var - Eli Mod - D30] (Eterna round: R97, puzzle: Sensor, turn-off variant 1) | 12.1 nM | – | 10.6 nM | – | – | –
ACUAGAUGAGGAUAUGCAUAUUUUCGUGUUCUUCUAGAUUAACAUGAGGAUCACCCAUGUAGAAGGCGUCAAUA [Exclusion 2 - 15] (puzzle: Exclusion 2) | – | – | – | 15.4 nM | – | –
UUUAAUUUUUUUUUUUUACAAGCUUUUUGCUCGUCUUAUACAUGAGGAUCACCCAUGUAGGUGAAGGAUAAAUUAUC [JMF 27] (puzzle: Sensor v3, turn-off variant 2) | – | – | – | 66.4 nM | 25.9 nM | 35.9 nM
